In paper PMC6085349, “Silkworms suppress the release of green leaf volatiles by mulberry leaves with an enzyme from their spinnerets” (Scientific Reports, 2018):

Substrate: CC/C=C\C[C@@H](/C=C/C=C\CCCCCCCC(=O)O)OO
Test: purified protein
Type: biochemical, Bombyx mori
Details: typical assay 50 mM sodium borate pH 9.0, no cofactor, enzyme inactivates during turnover

B1: BmFHD (Bombyx mori fatty acid hydroperoxide dehydratase) (Bombyx mori) (protein)
chain: GGLRTTWGVGLGLGTDFFYEIPRSLEEVKSQGWVLTDKADGLPLPSLALYCSEDRILCGFFDETEYVVGLQVSLPVDEVTDIIFDMPTQGFIIWETEVDGELKKFYSIQQYFINEDTLKQSVEDRLSKWDSSKTLQEKSIWVTGFNGTLLEISTVADDIANGDDFTKQACVPWMGRHYYYKMSAKTECKADTLLPWFPIVESGELIATGFISFLKLSNTYKWFEKPSKAAVQFIVPDGPKCLYDLAEDSGLTTMHIYYVNQPWLVSCLWQ
notes: native, purified from middle silk glands (MSG-A) of fifth instar larvae; 289 aa precursor with predicted 19-residue N-terminal signal peptide; 32 kDa on SDS-PAGE; no tag
Q: Which Km does the source give for B1 here?
A: 1.13 µM
